# Data published in the supplement of paper PMC11875167.
# Assay: observed amide hydrogen exchange rate constant kobs (stretched exponential fit, FD-normalized) (s^-1); higher = faster H/D exchange (less protection)
# Conditions: pH 3 (pH read); temperature: 20 °C; D2O: 88%
# Procedure, shortened: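 Uptake curves were fitted to a stretched single exponential with β = 0.8, and kobs, the observed exchange rate constant, is the fitted rate. The data came from Jurkat tryptic peptides (LysC/trypsin, carbamidomethylated cysteines) labeled in 88% D2O at pHread 3, 20 °C, then quenched with 0.23% formic acid at 13 times from 18 to 93,600 s in processing triplicates. MS1 uptake from a Q-Exactive HF, analyzed in HDExaminer with no back-exchange correction, was normalized to full-deuteration controls (24 h, 37 °C).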
row,Substance,observed amide hydrogen exchange rate constant kobs
1,DRVTDALNATR,0.000789
2,GAEAANVTGPGGVPVQGSK,0.00103
3,LTGMAFR,0.00159
4,VLQATVVAVGSGSK,0.000618
5,LLQDFFNGK,0.00068
6,FAAATGATPIAGR,0.00118
7,NPDDITQEEYGEFYK,0.00161
8,FVADGIFK,0.00103
9,SFYPEEVSSMVLTK,0.000867
10,HIYYITGETK,0.00121
11,IIWQFIK,0.000404
12,ATENDIANFFSPLNPIR,0.000823
13,TAFQEALDAAGDK,0.00172
14,VSHVSTGGGASLELLEGK,0.000818
15,TLNDELEIIEGMK,0.000994
16,STAGDTHLGGEDFDNR,0.00417
17,IWDLEGK,0.00103
18,TITLEVEPSDTIENVK,0.001
19,SNNVEMDWVLK,0.000871
20,VIPELNGK,0.00159
21,AELNEFLTR,0.00113
22,LQAALDDEEAGGRPAMEPGNGSLDLGGDSAGR,0.00232
23,NFAFLEFR,0.00106
24,AMADPEVQQIMSDPAMR,0.00104
25,IDTIEIITDR,0.000965
26,IIAPPERK,0.00142

row,Substance,observed amide hydrogen exchange rate constant kobs
1,ELLDLLYK,0.000866
2,NLPFDFTWK,0.00101
3,LVLVGDGGTGK,0.000679
4,AAPEASGTPSSDAVSR,0.00186
5,ENALVQMADGNQAQLAMSHLNGHK,0.00127
6,DLSTIEPLK,0.000669
7,RSELIAK,0.000984
8,LIINSLYK,0.00064
9,EIVLADVIDNDSWR,0.00114
10,QFLFRPWDVTK,0.000828
11,REEEEFNTGPLSVLTQSVK,0.00112
12,AIVAIENPADVSVISSR,0.00184
13,GRGARGGKAEDK,0.00275
14,EAEAAIYHLQLFEELRR,0.00102
15,GVVPLAGTNGETTTQGLDGLSER,0.00156
16,ESYSVYVYK,0.000648
17,ESTGAQVQVAGDMLPNSTER,0.00119
18,VEGTEPTTAFNLFVGNLNFNK,0.000826
19,GADFLVTEVENGGSLGSK,0.00147
20,GIVDQSQQAYQEAFEISK,0.000918
21,TAMSTPHVAEPAENEQDEQDENGAEASADLR,0.00244
22,YHTINGHNAEVR,0.00291
23,NQVAMNPTNTVFDAK,0.000774
24,IWHHTFYNELR,0.00224
25,AIADTGANVVVTGGK,0.00115
26,VAPEEHPVLLTEAPLNPK,0.00104

row,Substance,observed amide hydrogen exchange rate constant kobs
1,DQIYDIFQK,0.000729
2,DVIEEYFK,0.00131
3,VLSSIEQK,0.00109
4,FPGQLNADLRK,0.00145
5,IYVDDGLISLQVK,0.000841
6,AVTEQGHELSNEER,0.00324
7,YAVLYQPLFDK,0.000677
8,DRPFFAGLVK,0.000655
9,AGGFLMK,0.00127
10,SQLDIIIHSLK,0.000886
11,TLVLLMGK,0.000552
12,ILDSVGIEADDDRLNK,0.0024
13,SVETIK,0.000994
14,SIEVIENR,0.000822
15,FGYVDFESAEDLEK,0.00214
16,VAASNIVQMK,0.000933
17,DVNVNFEK,0.00146
18,GPDGLTAFEATDNQAIK,0.00114
19,VIGSGCNLDSAR,0.00116
20,TEWLDGK,0.00181
21,GVVDSEDLPLNISR,0.0013
22,NIIHGSDSVESAEK,0.00215
23,VTIAQGGVLPNIQAVLLPK,0.000495
24,GLSEDTTEETLK,0.003
25,AVFPSIVGRPR,0.000833
26,AAIDWFDGK,0.00155

row,Substance,observed amide hydrogen exchange rate constant kobs
1,IEDGNNFGVAVQEK,0.00127
2,DSTLIMQLLR,0.000608
3,TVTNAVVTVPAYFNDSQR,0.000806
4,QIPQATASMK,0.00103
5,LGEMWNNTAADDKQPYEK,0.00171
6,NIPGITLLNVSK,0.000585
7,AQQELEEQTRR,0.00236
8,AAQEEYVK,0.00112
9,VDFNVPMK,0.000994
10,NPLPSK,0.000929
11,SAEFLLHMLK,0.00118
12,LTLHGLQQYYVK,0.000933
13,TIAPALVSK,0.000597
14,QSLGELIGTLNAAK,0.000915
15,PAAPPAPGPGQLTLR,0.000936
16,QHYIDLK,0.00137
17,SYDVPPPPMEPDHPFYSNISK,0.00134
18,EDQTEYLEER,0.00222
19,YLNFFTK,0.00107
20,DDGLFSGDPNWFPK,0.00189
21,ADLINNLGTIAK,0.000815
22,EGLELPEDEEEK,0.00262
23,YISPDQLADLYK,0.000916
24,AFAMIIDK,0.000626
25,IDNSQVESGSLEDDWDFLPPKK,0.00156
26,FHVEEEGK,0.00347

row,Substance,observed amide hydrogen exchange rate constant kobs
1,LLEPVLLLGK,0.000574
2,APEPHVEEDDDDELDSK,0.0038
3,VAQLEQVYIR,0.001
4,LAPITSDPTEATAVGAVEASFK,0.000899
5,EALQDVEDENQ,0.0022
6,EAILDIITSR,0.0013
7,LFQECCPHSTDR,0.00299
8,EGMNIVEAMER,0.00123
9,NNQITNNQR,0.00134
10,GLFIIDDK,0.00107
11,YLAEFATGNDRK,0.0022
12,PVGSLAGIGEVLGK,0.00115
13,EQVANSAFVER,0.00104
14,MVVESAYEVIK,0.000759
15,VTLTSEEEAR,0.00196
16,IFVGGLNPEATEEK,0.00108
17,SYELPDGQVITIGNER,0.000908
18,IGLFGGAGVGK,0.000762
19,ELISNASDALDK,0.00184
20,QVVESAYEVIK,0.000781
21,DAGPLLISLK,0.000622
22,EDSVKPGAHLTVK,0.00181
23,GALQNIIPASTGAAK,0.000988
24,VMVQPINLIFR,0.000387
25,ESTLHLVLR,0.00129
26,TYSYLTPDLWK,0.000805
